Experimental data as given in publication doi:10.1101/2024.09.12.612748, “Analysis of polyclonal and monoclonal antibody to the influenza virus nucleoprotein in different oligomeric states” (bioRxiv, 2024).

Assays:
[1] = biological target: T1, recombinant NP of influenza A/PR/8/34 (H1N1) purified from bacteria (Influenza A virus (strain A/Puerto …, UniProt P03466)); experiment: immunoblot; settings: both partners purified
T1 construct: source: E. coli Rosetta 2 (DE3), purified (His GraviTrap TALON)

[2] = biological target: T2, NP in H1N1 viral lysate (A/Puerto Rico/8/34) (Influenza A virus (strain A/Puerto …, UniProt P03466)); experiment: immunoblot; settings: one partner purified
T2 construct: also called viral NP; NP from lysed influenza virus

[3] = biological target: T3, recombinant nucleoprotein (NP) from influenza A/Brisbane/10/2007 (H3N2) (Influenza A virus A/Brisbane/10/2007 …); experiment: BLI; Octet Red 96; […] (AMC) […] (6.25–200 nM), 1X PBS, association 300 s, dissociation 3,600 s, global 1:1 fit; settings: both partners purified
T3 construct: also called rNP; rNP-A

B1: anti-NP mouse monoclonal antibody HB65 (antibody, V domains shown)
VH: EVKLVESGGALVNPGGSLKLSCAASGFIFSSYAMSWIRQTPEKRLEWVASTSGGGTTYYLDSVRGRFTISRDNARRILYLQMTSLRSEDTAIYFCGRDGNWFTSWGQGTLVTVSI
VL: NIVMTQSPKSMSMSVGERVTLTCKASENVVTYVSWYQQKPEQSPKLLIYGASNRYTGVPDRFTGSGSATDFTLTISSVQAEDLADYHCGQGYSYPYTFGGGTKLEIK
notes: also called mAb HB65; IgG HB65; copies: 2 + 2
Question: Does B1 bind [1]?
Answer: Result: binds

Question: Does B1 bind [2]?
Answer: Result: binds

Question: And the Kd [3]?
Answer: The Kd was 120 ± 21 nM.
